According to the supplement of paper PMC12764529:
± gives the half width of the 95% confidence interval.

Assays:
[1] = folding stability dG unfold from trypsin proteolysis; higher = more stable
Outline: (§1)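 Unfolding free energy was derived, per protease or combined, by relating Bayesian-fitted K50 values from sequencing counts to a sequence-predicted unfolded-state K50 and a shared folded-state K50. The underlying digests exposed cysteine-free mini-proteins under 80 residues, in a PA-tagged cDNA display construct, to trypsin and chymotrypsin at 11 threefold-diluted concentrations and to a no-protease condition. A filter kept only designs with AlphaFold2 dimer inter-PAE above 15.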

[2] = folding stability dG unfold (combined trypsin and chymotrypsin); higher = more stable
Outline: as §1

[3] = folding stability dG unfold from chymotrypsin proteolysis; higher = more stable
Outline: as §1

Row | Sequence | folding stability dG unfold [1] | folding stability dG unfold [2] | folding stability dG unfold [3]
1 | SAGGSAGGSAMTPVTIKVTLTNPATGSTTTKTIYVPEPNPSVEEIKKKLPSDWTVTSITLSSAGGSAGGSAG [r3_80_JUSTAS] | 1.23 ± 0.045 kcal/mol | 1.07 ± 0.16 kcal/mol | 0.828 ± 0.16 kcal/mol
2 | SAGGSAGGSAMTTTSTSTYPDSITTTTTTTVDGTYIITTTTFYPATGTTTTTTTTLPPSLTSAGGSAGGSAG [r3_316_JUSTAS] | 2.91 ± 0.093 kcal/mol | 2.41 ± 0.048 kcal/mol | 1.987 ± 0.011 kcal/mol
3 | SAGGSAGGSAMTVLVMEIKIELRVNEDGSLELRMEIEIKPVEPITLEELAEKLGLSKEELLSAGGSAGGSAG [r3_338_TrROS_Hall] | 3.28 ± 0.12 kcal/mol | 3.03 ± 0.14 kcal/mol | 2.91 ± 0.085 kcal/mol
4 | SAGGSAGGSAMTVRFGKPEELEKAEELAEEIAKAHPGKPIKVTVTKDPNNPDEYTVTITEESAGGSAGGSAG [r3_131_JUSTAS] | -0.24 ± 0.16 kcal/mol | 0.289 ± 0.14 kcal/mol | 0.544 ± 0.09 kcal/mol
5 | SAGGSAGGSAMTVRIEFEDGSVKEIPAEEFSEDFIKALPKKYKVSEYPEPPLDNNKSNILKSAGGSAGGSAG [r3_69_JUSTAS] | -0.0131 ± 0.059 kcal/mol | 0.431 ± 0.091 kcal/mol | 0.697 ± 0.085 kcal/mol
6 | SAGGSAGGSAMVITKTTASVEEVKEEIKKEYPNANVKITKVSTSADGKTTYKIEIKIPKNNKSAGGSAGGSA [r18_464_JUSTAS] | 0.586 ± 0.067 kcal/mol | 2 ± 0.16 kcal/mol | 2.5 ± 0.033 kcal/mol
7 | SAGGSAGGSAMVTIAFPDGTVVEIPASLSEEEVEAEAERLAKERAAGVRPVDVTVESIEPPGSAGGSAGGSA [r18_213_JUSTAS] | 0.356 ± 0.035 kcal/mol | 1.07 ± 0.069 kcal/mol | 1.43 ± 0.062 kcal/mol
8 | SAGGSAGGSAMVVEVPVEFPDDVKVYSVEEDPELGVLLVKVKFPDREVLAVIPGDKLFIADASAGGSAGGSA [r18_212_TrMRF] | 0.43 ± 0.016 kcal/mol | 0.422 ± 0.052 kcal/mol | 0.325 ± 0.089 kcal/mol
9 | SAGGSAGGSAMVVPRTYRVPPGLTVEEVADYLRAKDPNVIDATAERRPDGYLLVTVLVRLDSAGGSAGGSAG [r3_371_TrMRF] | 1.21 ± 0.068 kcal/mol | 1.69 ± 0.17 kcal/mol | 2.07 ± 0.079 kcal/mol
10 | SAGGSAGGSAMWVIRIWFPNGNKRTIPIPPNEKLTAEEILDEFRIPNGREMRILRVEIWPYSAGGSAGGSAG [r3_465_TrROS] | 1.967 ± 0.011 kcal/mol | 2.43 ± 0.042 kcal/mol | 2.66 ± 0.034 kcal/mol
11 | SAGGSAGGSAMYKVTIEIPETGKIYTFTHPGTAEEALAAALPEIGVSKEKIKKITVTPTEESAGGSAGGSAG [r3_79_JUSTAS] | 0.312 ± 0.079 kcal/mol | 0.994 ± 0.11 kcal/mol | 1.36 ± 0.11 kcal/mol
12 | SAGGSAGGSANVKLKIDLDPGYGYIKIKLEWEDPGTGNKQEMEITIPIPIPPPPPPPANDKKSAGGSAGGSA [r18_361_TrROS] | 1.12 ± 0.11 kcal/mol | 1.93 ± 0.43 kcal/mol | 2.17 ± 0.11 kcal/mol
13 | SAGGSAGGSANWKEIDGTLPWGLRVKVWVSPGNGQLMIEIKPVPPPPPPKISPEDADKANADSAGGSAGGSA [r18_236_TrROS] | 2.31 ± 0.072 kcal/mol | 3.39 ± 0.3 kcal/mol | 4.06 ± 0.13 kcal/mol
14 | SAGGSAGGSANWYIRIHSPNGQPIWFPMKIKNVTPKGGEIEFKMRNPNGREMPFRVEIFPLESAGGSAGGSA [r18_163_TrROS] | 0.752 ± 0.13 kcal/mol | 0.981 ± 0.13 kcal/mol | 1.16 ± 0.22 kcal/mol
15 | SAGGSAGGSAPDVEVEPFTLPSGEEAVAFRLPDGSRVVLVGDKAVLFYKDGKVEEVPLEEILSAGGSAGGSA [r18_379_TrMRF] | 1.46 ± 0.042 kcal/mol | 1.76 ± 0.13 kcal/mol | 1.78 ± 0.1 kcal/mol
16 | SAGGSAGGSAPLPPLTPEQVKALVEELKKKGYKVKKVTVVEVNGELYVFVEVDGKLYRIKVSAGGSAGGSAG [r3_395_TrROS_Hall] | 3.47 ± 0.069 kcal/mol | 4.23 ± 0.064 kcal/mol | 4.47 ± 0.12 kcal/mol
17 | SAGGSAGGSAPLSLVIDFPSGPATITFLEDGTARITYTDDDKTETIPVADLLKIPADVDPRSAGGSAGGSAG [r3_256_TrMRF] | 0.0215 ± 0.099 kcal/mol | 0.507 ± 0.091 kcal/mol | 0.769 ± 0.12 kcal/mol
18 | SAGGSAGGSAPMEIWVLIDSPEKAKDLAKEIAHELQQSGIKIKVEVEQPPNGYYLVKIRFDSAGGSAGGSAG [r3_211_TrROS] | 1.89 ± 0.14 kcal/mol | 1.91 ± 0.22 kcal/mol | 1.81 ± 0.11 kcal/mol
19 | SAGGSAGGSAPPDEGQKWVPVTFPIEFPLPDGNKVKIPIDFWYPKEDGKPIAMQIEWWAKNSAGGSAGGSAG [r3_484_TrROS] | 0.373 ± 0.13 kcal/mol | 0.72 ± 0.26 kcal/mol | 1.42 ± 0.22 kcal/mol
20 | SAGGSAGGSAPPNLKIEIDLQRHPEDDHIFLEMEATYPDDGKELKVMIMINPDDGKIGIMIMSAGGSAGGSA [r18_383_TrROS] | 2.76 ± 0.22 kcal/mol | 3.34 ± 0.29 kcal/mol | 3.7 ± 0.29 kcal/mol
21 | SAGGSAGGSAPPRRVTIEYDPDSGMFKVKVPGGKEREIEGMPPNQIEEQAKDYGIDRVEIVSAGGSAGGSAG [r3_78_TrROS] | 0.205 ± 0.16 kcal/mol | -0.0794 ± 0.18 kcal/mol | -0.286 ± 0.41 kcal/mol
